Assay results published in patent US20180162923A1 (UNIVERSITY OF BRITISH COLUMBIA, published 2018).

How the values were obtained:
DU145 cells = assay: flow cytometry on DU145 cells, rhIgGFc at 100 nM, detected with anti-IgGFc-specific PE secondary antibody (control)
PLEXIN B1 [1] = molecular target: T1, PLEXIN B1 (human, UniProt O43157 20-2135); assay: alkaline phosphatase ligand binding assay on DU145 cells transfected with Plexin B1 siRNA B1 siRNA2 against scramble siRNA; APTag background subtracted
T1 construct: whole, on cells; Endogenous receptor on cells
T1 sequence (O43157 20-2135): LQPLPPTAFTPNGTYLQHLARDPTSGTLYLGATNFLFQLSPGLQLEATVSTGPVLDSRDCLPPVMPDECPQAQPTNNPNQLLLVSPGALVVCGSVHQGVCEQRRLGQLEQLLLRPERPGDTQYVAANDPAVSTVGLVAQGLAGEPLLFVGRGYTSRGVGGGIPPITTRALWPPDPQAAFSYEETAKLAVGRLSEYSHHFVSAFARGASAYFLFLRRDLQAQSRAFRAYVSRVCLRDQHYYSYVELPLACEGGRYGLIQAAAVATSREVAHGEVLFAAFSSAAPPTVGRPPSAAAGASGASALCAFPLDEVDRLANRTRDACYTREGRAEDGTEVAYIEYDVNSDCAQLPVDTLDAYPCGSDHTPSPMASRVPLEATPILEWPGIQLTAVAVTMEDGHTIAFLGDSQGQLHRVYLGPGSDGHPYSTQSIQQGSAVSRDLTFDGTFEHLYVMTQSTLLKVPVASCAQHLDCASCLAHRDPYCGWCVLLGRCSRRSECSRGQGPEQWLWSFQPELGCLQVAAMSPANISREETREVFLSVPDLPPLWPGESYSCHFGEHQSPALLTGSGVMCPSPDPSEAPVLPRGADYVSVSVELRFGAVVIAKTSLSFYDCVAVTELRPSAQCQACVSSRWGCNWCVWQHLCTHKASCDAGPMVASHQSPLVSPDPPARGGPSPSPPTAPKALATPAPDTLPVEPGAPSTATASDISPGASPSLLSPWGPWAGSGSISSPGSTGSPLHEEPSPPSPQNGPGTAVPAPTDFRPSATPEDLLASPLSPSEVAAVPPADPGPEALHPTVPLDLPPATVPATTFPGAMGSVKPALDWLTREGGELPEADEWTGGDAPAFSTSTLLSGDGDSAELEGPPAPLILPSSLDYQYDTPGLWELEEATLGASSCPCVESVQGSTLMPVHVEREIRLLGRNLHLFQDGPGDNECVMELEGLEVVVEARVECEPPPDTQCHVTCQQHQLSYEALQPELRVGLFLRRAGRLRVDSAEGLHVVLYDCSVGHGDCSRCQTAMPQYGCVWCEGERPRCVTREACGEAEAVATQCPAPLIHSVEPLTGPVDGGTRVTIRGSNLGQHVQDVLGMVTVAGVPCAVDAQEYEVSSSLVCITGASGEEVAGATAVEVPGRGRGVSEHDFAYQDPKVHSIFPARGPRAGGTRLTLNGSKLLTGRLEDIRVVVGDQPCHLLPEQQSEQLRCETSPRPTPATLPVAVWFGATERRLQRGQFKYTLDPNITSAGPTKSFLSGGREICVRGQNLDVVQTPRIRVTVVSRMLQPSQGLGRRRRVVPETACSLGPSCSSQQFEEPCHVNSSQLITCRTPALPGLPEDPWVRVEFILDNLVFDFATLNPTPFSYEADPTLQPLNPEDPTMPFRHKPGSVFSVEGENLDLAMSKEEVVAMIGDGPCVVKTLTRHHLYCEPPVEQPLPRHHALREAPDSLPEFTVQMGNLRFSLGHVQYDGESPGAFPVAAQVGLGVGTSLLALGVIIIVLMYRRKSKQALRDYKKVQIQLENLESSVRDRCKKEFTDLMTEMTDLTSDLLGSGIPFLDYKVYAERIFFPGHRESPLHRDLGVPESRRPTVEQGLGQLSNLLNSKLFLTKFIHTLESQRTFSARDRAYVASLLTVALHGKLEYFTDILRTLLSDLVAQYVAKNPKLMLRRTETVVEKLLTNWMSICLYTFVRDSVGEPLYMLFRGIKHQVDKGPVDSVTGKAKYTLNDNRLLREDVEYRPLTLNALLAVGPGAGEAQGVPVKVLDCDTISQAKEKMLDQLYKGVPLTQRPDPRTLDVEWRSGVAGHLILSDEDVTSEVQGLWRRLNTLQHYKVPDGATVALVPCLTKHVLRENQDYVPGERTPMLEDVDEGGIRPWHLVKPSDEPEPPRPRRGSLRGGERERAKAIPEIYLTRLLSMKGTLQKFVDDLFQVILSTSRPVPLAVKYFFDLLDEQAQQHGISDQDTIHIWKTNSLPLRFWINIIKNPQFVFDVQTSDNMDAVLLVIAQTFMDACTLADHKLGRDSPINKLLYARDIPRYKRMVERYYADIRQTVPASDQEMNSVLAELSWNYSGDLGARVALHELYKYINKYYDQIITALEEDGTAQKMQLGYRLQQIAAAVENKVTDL
Description: (§1) Cells were washed and then lysed. Plexin B1 levels were analyzed from lysates (30 μg) by polyacrylamide gel electrophoresis (PAGE). Western Blots were probed with anti-Plexin B1 and anti-phospho-Shc. Blots were re-probed with anti-vinculin and anti-Shc as loading control. DU145 cells were transfected with scramble siRNA, Plexin B1siRNA1 or PlexinB1 siRNA2 (10 nM) using RNAiMax™ reagent as directed by the manufacturer, (Invitrogen™, Missisauga, Ontario). Following 72 hours incubation the cells were replated at 20,000 cells/well in a 96-well flat bottom plate and let adhere for 4 hours. The remaining cells were lysed and assayed for PlexinB1 expression by Western Blot. The blot was reprobed with vinculin as loading control. Medium was replaced with DMEM without serum for 16 hours prior to the binding assay. […]
(§2) The binding assay was performed as previously described by […], J G. and LEDER, P. (1990), endogenous phosphatase heat inactivation was done in HBHA at 65° C. following the fixation step. Plate readings at 562 nm were taken initially and then every 24 hours. […]
(§3) DU145 cells transfected with scramble siRNA or, two distinct siRNAs targeting Plexin B1. […] AP-Sema3C binding to DU145 cells that were transfected with scramble or Plexin B1 siRNAs, where the mean and SEM AP-Sema3C binding performed was calculated in quadruplicate.

PLEXIN B1 [2] = molecular target: T1, PLEXIN B1; assay: alkaline phosphatase ligand binding assay on DU145 cells B1 siRNA1 against scramble siRNA; APTag background subtracted
Description: as §1, §2, §3

In the case of Recombinant human IgGFc, the level of staining at 100 nM (DU145 cells) is reported as 6.01%.

B1: AP-SEMA3C (ligand, UniProt Q99985 21-751, looked up)
chain: GSSQPQARVYLTFDELRETKTSEYFSLSHHPLDYRILLMDEDQDRIYVGSKDHILSLNINNISQEALSVFWPASTIKVEECKMAGKDPTHGCGNFVRVIQTFNRTHLYVCGSGAFSPVCTYLNRGRRSEDQVFMIDSKCESGKGRCSFNPNVNTVSVMINEELFSGMYIDFMGTDAAIFRSLTKRNAVRTDQHNSKWLSEPMFVDAHVIPDGTDPNDAKVYFFFKEKLTDNNRSTKQIHSMIARICPNDTGGLRSLVNKWTTFLKARLVCSVTDEDGPETHFDELEDVFLLETDNPRTTLVYGIFTTSSSVFKGSAVCVYHLSDIQTVFNGPFAHKEGPNHQLISYQGRIPYPRPGTCPGGAFTPNMRTTKEFPDDVVTFIRNHPLMYNSIYPIHKRPLIVRIGTDYKYTKIAVDRVNAADGRYHVLFLGTDRGTVQKVVVLPTNNSVSGELILEELEVFKNHAPITTMKISSKKQQLYVSSNEGVSQVSLHRCHIYGTACADCCLARDPYCAWDGHSCSRFYPTGKRRSRRQDVRHGNPLTQCRGFNLKAYRNAAEIVQYGVKNNTTFLECAPKSPQASIKWLLQKDKDRRKEVKLNERIIATSQGLLIRSVQGSDQGLYHCIATENSFKQTIAKINFKVLDSEMVAVVTDKWSPWTWASSVRALPFHPKDIMGAFSHSEMQMINQYCKDTRQQHQQGDESQKMRGDYGKLKALINSRKSRNRRNQLPES
notes: Used as conditioned medium from 293T cells; also called AP-SEMA 3C construct; not shown: alkaline phosphatase tag of the APTag vector
With B1 the “fold reduction of binding on Plexin B1 knockdown against scramble siRNA” value (PLEXIN B1 [1]) was 1.9 fold and the “fold reduction of binding on Plexin B1 knockdown against scramble siRNA” value (PLEXIN B1 [2]) was 2.4 fold.
